Test results: the nanobody polyreactivity screen of Harvey et al. (2022)

Assay: yeast display, Sf9 membrane polyspecificity reagent, FACS + sequencing; frameworks hold sequencing errors
In short: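 A nanobody's polyreactivity label depends on the gate it was sorted from. Yeast display cells were stained with 10% biotinylated, detergent-solubilized Sf9 membrane reagent for 1 hour at 4 °C, enriched on streptavidin microbeads and sorted by FACS. The low and high (top ~1%) gates were set on anti-HA fluorescence for expression and streptavidin fluorescence for reagent binding.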

Row | Sequence | polyreactivity (PSR sort gate)
1 | QVQLVESGGGLVQAGGSLRLSCAASGNTFKDYTMGWFRQAPGTERELVASINSGGSTNYADSVKGRFTISRDNAKNTVYLQMNSLKPEDTAVYDCAKRAWSDYNPIDYWGQGTQVTVSS | low polyreactivity
2 | QVQLVESGVGLVQAVVSLRISCAASGSNFNYYAMGWYRQAPGKERELVAAISGSGATTYYADSVKGRFTISRDNAKNTVYLQMNSLKPEDTAVYYCATTRRWYIGYDYWGQGTQVTVSS | high polyreactivity
3 | QVQLVESGGGLVQAGGSLRLSCAASGSTFAYYTMGWYRPGPGKEREMVAAIRGGGRTYYADSVKGRFTISRDNAKNTVYLQMNSLKPEDTAVYYCAATVYVTKGYGYWGQGTQVTVSS | high polyreactivity
4 | QVQLVESGGGLVQAGGSLRLSCAASGSTFKRYDLGWYRQAPGKERELFAAIRTSGGTTYYADSVKCRFTISRDYAKNNVYLQMNSLKPEDTAVYYCAASKWPRHRTRRYYYWVQGTQVTVSS | high polyreactivity
5 | QVQLVESGGGLVQAGGSLRLSCAASGSTFYAYAMGWYRQAPGKERELVAAISSSGGSTYYADSVKGRFTISRDNAKNTVYLQMNSLKPEDTAVYYCAAYDSVQKYWILGFDYWGQGTQVTVSS | low polyreactivity
6 | QVQLVQTGRGLVQAGGSLRLICAASANIFYTNAMGWYRQAPGKERELVAAISGSGGRTYYADSVKGRFTISRDNAKNTVYLQMNSLKPEDTAVYYFNAVRRDYYDRTYGYWGQGTQVTVSS | low polyreactivity
7 | QVQLVESGGGLVQAGGRLRLTCAASGSTFPTYAMGWYRQAPGKERELVAAISTRGGSTYYADSVKGRFTISRDNAKNTVYLQMNSLKPEDTAVYYCATGKSLGRYHYEYWGQGSQVTVSS | low polyreactivity
8 | QVQLVESGGGLVQAGGSLRLSCAASGSISDSYAMGWYRQAPGKERELVAAITSGDSTYYADSVKGRFTISRDNAKNTVYLQMNSLKPEDTAFYYCAKRVSRVRGYGFTDWSEYDYWGQGTQVTVSS | low polyreactivity
9 | QVQLVESGGGLVQAGGSLRLSCAASGFTFPSYTMGWYRQAPGKERELVAAISRSDGTTYYADSVKGRFTISRDNAKNTVYLQMNSLKPEDTAVYYCNKAYKRYGYHYDYWGQGTQVTVSS | high polyreactivity
10 | QVQLVESGGGLVQAGGSLRLSCAASGNTFGTYVMGWYRQAPGKERELVAAISQSGGSTDYADSVKGRFTISRYNAKNTVYLQMNSLKPEDTAVYYCATDGHYLYNRKYYRLTRYYYWGQGTQVTVSS | low polyreactivity
11 | QVQLVESRGGLVQAGGSIRLSCAASGRIFVTYAMGWYRQAPGKERELVAVISWSGGSTYYADSVKGRFTISRDNAKNTVYLQMNSLKPEDTAVYYCARGLRKVRFDFWGQGTQVTVSS | low polyreactivity
12 | QVQLVESGGGLVQAGGSLRLSCAASGRIFVHYVMGWYRQAPGKERELVAAITVSGGGTYYADSVKGRFTISRDNAKNTVYLQMNSLKPEDTAVYYCNAVPHPYDWGQGTQVTVSS | low polyreactivity
13 | QVQLVESGGGLVHAGGSLRLSCAASGFTFSFYAMGWYRQAPGKERELVATITGSGVRTYYADSVKGRFTISRDNAKNTVYLQMNSLKPEDTAVYYCNRQGFTHRGYYWGQGTQVTVSS | high polyreactivity
14 | QVQLVESSGGLVQAGGSLRLSCAASGLTFDGYAMGWYRQAPGKEREIVAAITQSGGSTYYADSVKGRFTISRDNAKNTVYLQMNSLKPVDTAVYYCAADGVLIHISYFRVVDGGEDHWGQGTQVNVSS | low polyreactivity
15 | QVQLVESGGGLVQAGGSLRLSCAASGFTLLGYAMGWYRQAPGKERELVAAISRGGNTYYADSVKGRFTISRDNAKNTVYLQMNSLKPEDTAVYNCAAQTYSTGYVTRFNYWGQGTQVTVSS | high polyreactivity
16 | QVQLVDSGGGLVQAGGSLRLSCAASGFTFQYYSMGWYRQATGKERELVADISSSGDSTNYADSVKGRFTISRDTAKNTVYLQMNSLKPEDTAVYYCAADYSQPNFEYYYWGQGTQVTVSS | low polyreactivity
17 | QVQLVESGGGLVQAGGSLRLSCAASGFYLNAMGWYRQAPGKERELVATITSSATNTYYADSVKGRFTISRDNAKNTVYLQMNSLKPEDTAVYYCNARYTSHTHADGVYLYDYWGQGTQVTVSS | low polyreactivity
18 | QVHLVESGGGLVQAGGSLRLSCAASGSIFIYNAMGWYRQAPGKERELVAAISWSGDSTYYADSVKGRFTISRDNAKNTVYLQMNSLKPEDTAVYYCNAKPSRKWGRGTGKQYDYWGQGTQVTVSS | high polyreactivity
19 | QVQLVESGGGLVQAGGSLRLSCAASGRIFTSYAMGWYRQAPGKERELVAAINRGGSTYYADSVKGRFTISRDNAKNTVYLQMNSLKPEDTAVYYCNATPPYNPEFDYWGQGTQVTVSS | low polyreactivity
20 | QVQLVESGGGIVQAGGSLRLSCAASGSIFDNAMGWYRQAPGKERELVAAITSGGITNYADSVKGRFTISRDNAKNTVYLQMNSLKPEDTAVYYCNTLSPTQTKYDYWGQGTKVTVSS | low polyreactivity
21 | QVQLVESGGGLVQAGVSLRLSCAASGRTFVHYTMGWSRQSPGKERELVATISTSGGSTSYADSVKGRFTISRDNAKNTVYLQMNSLKPEDTAVYYCAARWYFPDRVKYDYWGQGTQVSVSS | low polyreactivity
22 | QVQLVESGGRLVQAGGSLRLSCAASGSIFKYYVMGWYRQAPGKERELVAAISSGGGSTYYADSVKGRFTISRDNAKNSVYLQMNSLKPEDTAVYYCNKKYRSRWQGPFDYWGQATQVTVSS | high polyreactivity

Row | Sequence | polyreactivity (PSR sort gate)
23 | QVQLVESGGGLVQAGGSLRLSCAASGIFGGYAMGWYRQAPGKERELVAAIRYSSGSTYYADSVKGRFTISRDNAKNTVYLQMKSLKPEDTAVYYCAAEVVEAPDNDYWGQGTQVTVSS | low polyreactivity
24 | QVQLVESGGGLVQAGGSLRLSCAASGLTFSRNAMGWYRQAPGKERELFATINSGGRTNYADSVKGRFTISRDNAKNTVYLQMNSQKPEDTAVYYCAVRTYSNYRAIVPYCRYDYWGQGTQVTVSS | high polyreactivity
25 | QVQLEESGGGLVHAGGSLRLSCAASGFIFKANAMGWYRQAPGKEREFVASISSSGGSTYYADSVKGRFTISRDNAKNTVYLHMNSLKPEDTAVYYCAAYTGYRHSRINLGYWGQGTQVTVSS | high polyreactivity
26 | KGQLVESGGGLVQAGGSLRLTCAASGSNFRFYAMGWYRQAPGKERELVAAITYRSGITYADSVKGRFTISRDNAKNTVYVQMNSLKPEDTAVYYCAARARRYTDEYDYWGQGSQVTVSS | low polyreactivity
27 | QVQLVESGGGLVQAGGSLRLSCAASGSIFGRYGMVCYRQAPGKERQLVAAITSGTGTNYADSVKGRFTISRDNALNTVYLQMNSLKPEDTAVYYCNALRLRGNYEYGYWGQGTQVTLSS | low polyreactivity
28 | QVQLVESGGGLVQAGGSLRLSCAASGFTFYGYAMGWYRQAPGKERELVAAISSSGGRTYYADSVKGRFTISRDNSKNTVYLQMNSLKPEDTAVYYCAADYTSRDYYYWGQGTQVTVSS | high polyreactivity
29 | QVQLVESGGGLVQAGGSLRLSCAASGRIFQGYAMVWYRQAPGKERELVARITSGSNTNYADSVKGRFTISRDNAKNTVYLQMNSLKPEDTAVYYCAKEPVGSVRYGRFQQDDYWGQGTQVTVSS | low polyreactivity
30 | QVQLVESGGGLVQAGGSLRLSCAASGRIFHYYAMGWYRQAPGKERELVAAISYSGTRTYYADSVKGRFTISRDNAKNTVYLQMNSLNPEDTAVYYCNAARSTNFDYWGQGTQVTVSS | high polyreactivity
31 | QVQLVESGGGLVQSGGSLRLSCAASGRIFFYYAMGGYRQAPGKERELVATIRDGGGTTYYADSVKRRFTISIDNAKNTVYLQMNSLKTDDTAFYYCNVDVWRKYYYWGQGTQVTVSS | low polyreactivity
32 | QVQLVESGVGLDQAGGSLRLSCAASGFTFYSNAMGWYRQAPGKERELVAAITGRGGRTYYADSVKGRFTISRDNAKNTVYLLMNSLKPEDTAVYYCAAVYHVSTWGGRYYFRQGYDYWGQGTQVTVSS | high polyreactivity
33 | QVQLVESGGGLVQAGGSLRLSCAASGRTFRTNAMGWYRQAPGKERELVAAISTGGGITNYADSVKGRFTISRDNAKNTVYLQMNSLKPEDTAVYYCNADIYTWFQIGGYQYDYWGQGTQVTVSS | low polyreactivity
34 | QVQLVESGGGLVQAGGSLRLSCAASGRIFWTYAMGWYRQAPGKERELVAAINSSDGTYYADSVKGRFTISRDNAKNTVYLQMNSLKPEDTAVYYCNADRDALVGYDYDYWGQVTQVTVSS | low polyreactivity
35 | QVHLVESGGVLVQAGGSLRLSCAASGSTFLYYAMGRYRQAPGKEREFVASISGSGGSTNYADSVKGRFTISRDNAKNTVSLQMNSLKPEDTAVYYCAKEYVTEFQGYYDWGQGSQVTVSS | low polyreactivity
36 | QVQLVESGGGLVQAGGSLRLSCAASGYTLGVNAMGWYRQAPGKERELVAAINYIDTRTYYADSVKGRFTISRDNAKNTVYLQMNSLKPEDTAVYYCAALPYVPWVKRYYYWGQGTQVTVSS | low polyreactivity
37 | QVQLVESGGGLVQQGGILRLSCASSGSNFILNEMGWSRQAPRKDRELVATISSSDTSTYYADSVKGRFTISRDNAKNTVYVQMNSLKPEDTAVYYCNADYYTTSYLQRVYHYGVEYDYWGQGTQVTVSS | low polyreactivity
38 | QVQLVESGGGLVQAGGSLRLSCAASGYIYIRNAMGWYRQAPGKERELVAAISCTGGSTYYADSVKGRFTISRDNAKNTVYLQMKILKPEDTAVYYCNKYYRAWLLWDYGYWGQGTQVTVSS | high polyreactivity
39 | QVQLVESGGGLVQAGGSLRLSCASSGRTFRYYAMGWYRQAPGKERELVAAIRSGGITNYADSVKGRFTISRDNAKNTVYLQMNSLKPEDTAVYYCAVETPSTWFSGWGYDYDYWGQGTQVTVSS | high polyreactivity
40 | QVQLVESGGGLVQAGGSLRLSCAASGSTFIPYAMGWYRQAPGKERELVAGINGGDGSTYYADSVKGRFTISRDNAKNTVYLQMNSLKPEDTAVYYCAKKNPLVFTSGMDYWGQGTQVTVSS | low polyreactivity
41 | QVQLVESGGGLVQAGGSLRLSCAASGRTFYSYSMGWYRQAPGKERELVAAINRSGGRTYYADSVKGRFTISRDNAKNTVYLQMNSLKPEDTAVYYCNALEYYRYDYWGQGTQVTVSS | high polyreactivity
42 | QVQLVESGGGLVQAGGSLRLSCAASGSIFDYNAKGWYRPAPGKERELVASISGDSGSTYYADSVKGRFTISRDNAKNTVYLQMNSLKPEDTAVYYCAAPYVSWDYRYYYWGQGTQVTVSS | low polyreactivity
43 | QVQLVESVVGLVQAGGSLRLSCAASGRIFFAYTMGWYRQAPGKERELVAAISSSGSTYYADSVKGRFTISRDNAKNTVYLQMNSLKPEDTAVYYLRVQRRAYRYDYWGQGTKVTVSS | high polyreactivity
